# Measurements published in article doi:10.1101/2023.04.20.537738 (bioRxiv, 2023).
# Molecular target: SARS-CoV-2 (WA-1) Spike receptor binding domain (RBD)-mouse Fc fusion protein (SARS-CoV-2, UniProt P0DTC2)
# Assay: flow cytometry on cells
binder,measurement,value
"FG-10A3 (Family G clone 10A3) human anti-SARS-CoV-2 Spike RBD neutralizing monoclonal antibody (antibody, V domains shown) VH: QVQLVESGGGVVQPGRSLRLSCAASGFTFSSYGMNWVRQAPGKGLEWVAIIWYDGNNTYYVDSVKGRFTISRDNSKNTLYLQMNSLRAEDTAVYYCARKDGSKTYYGYYFDYWGQGTLVTVSS VL: DIQMTQSPSSLSASVGDRVTITCRASQSIHSFLNWYQQKPGKPPNLLIYAASSLQSGLPSRFSGSGSGTDFTLTISSLQPEDFATYYCQQSYITPPTFGHGTKVEIK",binding result,binds
